Assay results reported in publication PMC6796863, “Structural insight into human N6amt1–Trm112 complex functioning as a protein methyltransferase” (Cell Discovery, 2019).

Target: T1, human N6amt1–Trm112 complex (human, UniProt Q9Y5N5 1-214; Q9UI30 1-125)
T1 construct: human N6amt1 (HemK2), full length, 214 amino acids; human Trm112, full length; SAM co-purifies with the complex; before the ITC titration the complex was incubated with SAH at a molar ratio of 1:2; also called the protein complex; source: E. coli BL21(DE3), co-expressed from pET-Duet, purified (Ni-NTA, gel filtration)
T1 sequence (looked up) 1: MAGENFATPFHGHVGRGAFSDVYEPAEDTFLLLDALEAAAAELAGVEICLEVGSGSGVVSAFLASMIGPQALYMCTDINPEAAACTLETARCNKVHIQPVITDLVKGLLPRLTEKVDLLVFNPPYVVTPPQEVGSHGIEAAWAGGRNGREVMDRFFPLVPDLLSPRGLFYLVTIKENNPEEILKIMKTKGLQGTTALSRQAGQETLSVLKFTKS
T1 sequence (looked up) 2: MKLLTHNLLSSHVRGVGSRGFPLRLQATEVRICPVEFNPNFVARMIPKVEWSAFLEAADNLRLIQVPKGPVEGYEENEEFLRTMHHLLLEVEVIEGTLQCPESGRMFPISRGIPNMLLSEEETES
Experiment: ITC; 2 mM peptide injected into 0.1 mM N6amt1–Trm112 in the cell, 20 °C; complex incubated beforehand with SAH at a molar ratio of 1:2; single binding site model
Conditions: both partners purified

B1: Gln185-centered 15-residue peptide of human eRF1 (GGQ peptide) (peptide)
peptide: KKHGRGGQSALRFAR
notes: human eRF1, 15-residue peptide centered at Gln185; also called 15-residue GGQ peptide of eRF1
In the case of B1, the Kd is reported as 490 ± 150 µM.
